Numbered stars: 1 amine (or outer) side, 2 acyl side, 3 side chain; on linkers, the order of the positions; unused ones are H or OH. Bridge positions count the residues as written; N and C are the ends. Side chains are listed from the residue outwards. Ends that are not written are not given here. * marks the point of attachment. C20 diacid = O=C(O)CCCCCCCCCCCCCCCCCCC(=O)*; γGlu = O=C(O)[C@H](CCC(=O)[*:2])N[*:1]; AEEA = NCCOCCOCC(=O)O
How the values were obtained:
[1] = molecular target: T1, rat amylin receptor (rat calcitonin receptor + rat RAMP 3) (rat, UniProt P32214 25-516; Q9JJ73 23-147); assay: SPA competition with 125I-rat amylin, membranes of BHK cells with rat calcitonin receptor + rat RAMP3 (Assay VI)
T1 construct: whole, on cells; also called rAmylin-R; rat amylin 3(a) receptor
T1 sequence (looked up) 1: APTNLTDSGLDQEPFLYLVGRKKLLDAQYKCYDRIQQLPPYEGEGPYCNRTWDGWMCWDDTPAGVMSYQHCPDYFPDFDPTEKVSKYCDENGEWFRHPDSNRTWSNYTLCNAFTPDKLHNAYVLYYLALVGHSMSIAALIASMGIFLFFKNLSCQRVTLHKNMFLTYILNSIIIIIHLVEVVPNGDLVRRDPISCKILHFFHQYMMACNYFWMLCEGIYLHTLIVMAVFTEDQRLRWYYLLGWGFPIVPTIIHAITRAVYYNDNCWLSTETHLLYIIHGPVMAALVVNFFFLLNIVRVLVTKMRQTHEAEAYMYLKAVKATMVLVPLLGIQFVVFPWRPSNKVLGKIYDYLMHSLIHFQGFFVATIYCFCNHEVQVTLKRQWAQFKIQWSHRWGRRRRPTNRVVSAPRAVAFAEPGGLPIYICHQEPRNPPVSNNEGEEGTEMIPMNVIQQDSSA
T1 sequence (looked up) 2: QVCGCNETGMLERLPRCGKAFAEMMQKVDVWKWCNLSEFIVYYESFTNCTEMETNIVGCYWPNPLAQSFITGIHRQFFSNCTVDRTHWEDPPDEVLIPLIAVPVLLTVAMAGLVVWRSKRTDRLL

rat calcitonin receptor [2] = molecular target: T2, rat calcitonin receptor (rat, UniProt P32214 25-516); assay: SPA competition with 125I-calcitonin, membranes of BHK cells with rat calcitonin receptor (Assay VIII)
T2 construct: whole, on cells; also called rCTR; rat calcitonin (a) receptor
T2 sequence (looked up): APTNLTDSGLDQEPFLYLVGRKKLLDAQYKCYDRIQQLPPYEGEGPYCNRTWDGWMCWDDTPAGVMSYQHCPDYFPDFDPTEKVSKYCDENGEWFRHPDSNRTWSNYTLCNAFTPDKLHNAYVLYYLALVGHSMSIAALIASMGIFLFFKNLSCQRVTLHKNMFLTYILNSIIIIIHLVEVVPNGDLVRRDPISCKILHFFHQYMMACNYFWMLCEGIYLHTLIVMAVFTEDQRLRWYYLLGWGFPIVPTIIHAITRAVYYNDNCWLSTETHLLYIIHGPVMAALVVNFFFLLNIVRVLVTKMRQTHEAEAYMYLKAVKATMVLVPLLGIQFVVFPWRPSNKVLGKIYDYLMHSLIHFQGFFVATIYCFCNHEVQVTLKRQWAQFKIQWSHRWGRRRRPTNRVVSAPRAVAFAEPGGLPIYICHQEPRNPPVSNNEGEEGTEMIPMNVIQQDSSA

[3] = molecular target: T3, human calcitonin receptor (human, UniProt P30988 25-474); assay: ratio of binding IC50s: human calcitonin receptor over human amylin receptor (reference)
T3 construct: whole, on cells; also called hCTR; hCT
T3 sequence (looked up): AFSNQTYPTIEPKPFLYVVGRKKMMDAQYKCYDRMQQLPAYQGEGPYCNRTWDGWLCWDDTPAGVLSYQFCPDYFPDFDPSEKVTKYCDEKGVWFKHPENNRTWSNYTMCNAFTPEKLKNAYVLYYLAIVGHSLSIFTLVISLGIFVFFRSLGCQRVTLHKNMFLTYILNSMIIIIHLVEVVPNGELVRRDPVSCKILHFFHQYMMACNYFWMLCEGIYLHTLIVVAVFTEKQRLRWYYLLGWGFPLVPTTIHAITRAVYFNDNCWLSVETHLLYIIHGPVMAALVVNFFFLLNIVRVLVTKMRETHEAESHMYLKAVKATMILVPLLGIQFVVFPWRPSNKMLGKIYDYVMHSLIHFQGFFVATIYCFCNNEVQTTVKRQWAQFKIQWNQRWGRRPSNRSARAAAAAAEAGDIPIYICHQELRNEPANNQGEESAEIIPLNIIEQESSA
Description: The resulting pellet was resuspended, homogenized and centrifuged (20.000 rpm, 15 min) in a buffer containing 20 mM Na-HEPES and 0.1 mM EDTA (pH 7.4, buffer 2). The resulting pellet was resuspended in buffer 2 and protein concentration was measured (BCA protein Assay, Pierce). The homogenate was kept cold during the whole procedure. The membranes were kept at −80° C. until use. The assay was performed in a 384 well Optiplate (PerkinElmer) in a total volume of 40 ul. Membranes were mixed with SPA beads. Final concentration of membranes 35 ng/μL final and SPA beads was 0.05 mg/well. Test-compounds were dissolved in DMSO and further diluted in assay buffer (50 mM Hepes, pH 7.4, 1 mM CaCl2, 5 mM MgCl₂, 0.1% OA and 0.02% Tween20). […] The final mixture was incubated with shaking at 400 rpm for 120 min at 25° C. prior to centrifugation (1500 rpm, 10 min). Samples were analyzed on TopCounter™ (Packard). The IC₅₀ was calculated using (one site binding competition analysis) GraphPad Prism5 as a measure of receptor affinity.
Membranes were prepared in the following way; the cells were rinsed with PBS and incubated with Versene for approximately 5 min before harvesting. The cells were flushed with PBS and the cell-suspension was centrifuged for 5 min at 1000 rpm. Cells were homogenized (Ultrathurrax) in a buffer containing 20 mM Na-HEPES and 10 mM EDTA (pH 7.4) and centrifuged at 20.000 rpm for 15 min. The resulting pellet was resuspended, homogenized and centrifuged (20.000 rpm, 15 min) in a buffer containing 20 mM Na-HEPES and 0.1 mM EDTA (pH 7.4, buffer 2). The resulting pellet was resuspended in buffer 2 and protein concentration was measured (BCA protein Assay, Pierce). The homogenate was kept cold during the whole procedure. The membranes were kept at −80° C. until use. Assay was performed in a 384 well Optiplate (PerkinElmer) in a total volume of 40 ul. Membranes were mixed with SPA beads.

rat calcitonin receptor [4] = molecular target: T2, rat calcitonin receptor; assay: ratio of binding IC50s: rat calcitonin receptor over rat amylin receptor (reference)

Binder	IC50 [1]	IC50 (rat calcitonin receptor [2])	Ratio hCT/hAmylin binding [3]	Ratio rCT/rAmylin binding (rat calcitonin receptor [4])
K([AEEA-γGlu-C20 diacid])CNTATCATQRLANFLRHSSPNFGAIPSSTNVGRNTY-NH2 (disulfide 2-7; N-terminus assumed; SMILES CC[C@H](C)[C@H](NC(=O)[C@H](C)NC(=O)CNC(=O)[C@H](Cc1ccccc1)NC(=O)[C@H](CC(N)=O)NC(=O)[C@@H]1CCCN1C(=O)[C@H](CO)NC(=O)[C@H](CO)NC(=O)[C@H](Cc1c[nH]cn1)NC(=O)[C@H](CCCNC(=N)N)NC(=O)[C@H](CC(C)C)NC(=O)[C@H](Cc1ccccc1)NC(=O)[C@H](CC(N)=O)NC(=O)[C@H](C)NC(=O)[C@H](CC(C)C)NC(=O)[C@H](CCCNC(=N)N)NC(=O)[C@H](CCC(N)=O)NC(=O)[C@@H](NC(=O)[C@H](C)NC(=O)[C@@H]1CSSC[C@H](NC(=O)[C@@H](N)CCCCNC(=O)COCCOCCNC(=O)CC[C@H](NC(=O)CCCCCCCCCCCCCCCCCCC(=O)O)C(=O)O)C(=O)N[C@@H](CC(N)=O)C(=O)N[C@@H]([C@@H](C)O)C(=O)N[C@@H](C)C(=O)N[C@@H]([C@@H](C)O)C(=O)N1)[C@@H](C)O)C(=O)N1CCC[C@H]1C(=O)N[C@@H](CO)C(=O)N[C@@H](CO)C(=O)N[C@H](C(=O)N[C@@H](CC(N)=O)C(=O)N[C@H](C(=O)NCC(=O)N[C@@H](CCCNC(=N)N)C(=O)N[C@@H](CC(N)=O)C(=O)N[C@H](C(=O)N[C@@H](Cc1ccc(O)cc1)C(N)=O)[C@@H](C)O)C(C)C)[C@@H](C)O, synthetic analogue of human amylin; also called compound 78)	1.3 nM	90.6 nM	60.7	69.9
K([AEEA-γGlu-C20 diacid])CNTATCATQRLANFLRHSSPNFGAIPSSTNVGHNTY-NH2 (disulfide 2-7; N-terminus assumed; SMILES CC[C@H](C)[C@H](NC(=O)[C@H](C)NC(=O)CNC(=O)[C@H](Cc1ccccc1)NC(=O)[C@H](CC(N)=O)NC(=O)[C@@H]1CCCN1C(=O)[C@H](CO)NC(=O)[C@H](CO)NC(=O)[C@H](Cc1c[nH]cn1)NC(=O)[C@H](CCCNC(=N)N)NC(=O)[C@H](CC(C)C)NC(=O)[C@H](Cc1ccccc1)NC(=O)[C@H](CC(N)=O)NC(=O)[C@H](C)NC(=O)[C@H](CC(C)C)NC(=O)[C@H](CCCNC(=N)N)NC(=O)[C@H](CCC(N)=O)NC(=O)[C@@H](NC(=O)[C@H](C)NC(=O)[C@@H]1CSSC[C@H](NC(=O)[C@@H](N)CCCCNC(=O)COCCOCCNC(=O)CC[C@H](NC(=O)CCCCCCCCCCCCCCCCCCC(=O)O)C(=O)O)C(=O)N[C@@H](CC(N)=O)C(=O)N[C@@H]([C@@H](C)O)C(=O)N[C@@H](C)C(=O)N[C@@H]([C@@H](C)O)C(=O)N1)[C@@H](C)O)C(=O)N1CCC[C@H]1C(=O)N[C@@H](CO)C(=O)N[C@@H](CO)C(=O)N[C@H](C(=O)N[C@@H](CC(N)=O)C(=O)N[C@H](C(=O)NCC(=O)N[C@@H](Cc1c[nH]cn1)C(=O)N[C@@H](CC(N)=O)C(=O)N[C@H](C(=O)N[C@@H](Cc1ccc(O)cc1)C(N)=O)[C@@H](C)O)C(C)C)[C@@H](C)O, synthetic analogue of human amylin; also called compound 76)	0.686 nM	38.9 nM	80	56.8
K([AEEA-γGlu-C20 diacid])CNTATCATQRLANFLRHSSPNFGAIPPSTPVGSNTY-NH2 (disulfide 2-7, synthetic analogue of human amylin; also called compound 53)	0.084 nM	10.9 nM	104	130
K([AEEA-γGlu-C20 diacid])CNTATCATQRLANFLRHSSPNFGAIPPSTNVGPNTY-NH2 (disulfide 2-7; N-terminus assumed; SMILES CC[C@H](C)[C@H](NC(=O)[C@H](C)NC(=O)CNC(=O)[C@H](Cc1ccccc1)NC(=O)[C@H](CC(N)=O)NC(=O)[C@@H]1CCCN1C(=O)[C@H](CO)NC(=O)[C@H](CO)NC(=O)[C@H](Cc1c[nH]cn1)NC(=O)[C@H](CCCNC(=N)N)NC(=O)[C@H](CC(C)C)NC(=O)[C@H](Cc1ccccc1)NC(=O)[C@H](CC(N)=O)NC(=O)[C@H](C)NC(=O)[C@H](CC(C)C)NC(=O)[C@H](CCCNC(=N)N)NC(=O)[C@H](CCC(N)=O)NC(=O)[C@@H](NC(=O)[C@H](C)NC(=O)[C@@H]1CSSC[C@H](NC(=O)[C@@H](N)CCCCNC(=O)COCCOCCNC(=O)CC[C@H](NC(=O)CCCCCCCCCCCCCCCCCCC(=O)O)C(=O)O)C(=O)N[C@@H](CC(N)=O)C(=O)N[C@@H]([C@@H](C)O)C(=O)N[C@@H](C)C(=O)N[C@@H]([C@@H](C)O)C(=O)N1)[C@@H](C)O)C(=O)N1CCC[C@H]1C(=O)N1CCC[C@H]1C(=O)N[C@@H](CO)C(=O)N[C@H](C(=O)N[C@@H](CC(N)=O)C(=O)N[C@H](C(=O)NCC(=O)N1CCC[C@H]1C(=O)N[C@@H](CC(N)=O)C(=O)N[C@H](C(=O)N[C@@H](Cc1ccc(O)cc1)C(N)=O)[C@@H](C)O)C(C)C)[C@@H](C)O, synthetic analogue of human amylin; also called compound 55)	0.081 nM	6.25 nM	51.8	77.2
K([AEEA-γGlu-C20 diacid])CNTATCATQRLANFLRHSSPNFGAIPSPTPVGSNTY-NH2 (disulfide 2-7; N-terminus assumed; SMILES CC[C@H](C)[C@H](NC(=O)[C@H](C)NC(=O)CNC(=O)[C@H](Cc1ccccc1)NC(=O)[C@H](CC(N)=O)NC(=O)[C@@H]1CCCN1C(=O)[C@H](CO)NC(=O)[C@H](CO)NC(=O)[C@H](Cc1c[nH]cn1)NC(=O)[C@H](CCCNC(=N)N)NC(=O)[C@H](CC(C)C)NC(=O)[C@H](Cc1ccccc1)NC(=O)[C@H](CC(N)=O)NC(=O)[C@H](C)NC(=O)[C@H](CC(C)C)NC(=O)[C@H](CCCNC(=N)N)NC(=O)[C@H](CCC(N)=O)NC(=O)[C@@H](NC(=O)[C@H](C)NC(=O)[C@@H]1CSSC[C@H](NC(=O)[C@@H](N)CCCCNC(=O)COCCOCCNC(=O)CC[C@H](NC(=O)CCCCCCCCCCCCCCCCCCC(=O)O)C(=O)O)C(=O)N[C@@H](CC(N)=O)C(=O)N[C@@H]([C@@H](C)O)C(=O)N[C@@H](C)C(=O)N[C@@H]([C@@H](C)O)C(=O)N1)[C@@H](C)O)C(=O)N1CCC[C@H]1C(=O)N[C@@H](CO)C(=O)N1CCC[C@H]1C(=O)N[C@H](C(=O)N1CCC[C@H]1C(=O)N[C@H](C(=O)NCC(=O)N[C@@H](CO)C(=O)N[C@@H](CC(N)=O)C(=O)N[C@H](C(=O)N[C@@H](Cc1ccc(O)cc1)C(N)=O)[C@@H](C)O)C(C)C)[C@@H](C)O, synthetic analogue of human amylin; also called compound 54)	0.049 nM	8.79 nM	146	179
